EC50 of IFNγ secretion (ELISA) by CD16^+ NK cells (PTA-6967), overnight, rFVIIIFc 250 nM to 7.6 pM (Figure 2B), surface CD107a (LAMP1), % LAMP1^+ PTA-6967 NK cells by flow cytometry after 6 hours with 250 nM rFVIIIFc, against untreated cells (Figure 2E) and Kd data for three substances are collected here from PMC8273617.

For experiment [1], the target named is Fc gamma receptor IIIA (FcγRIIIA/CD16) on PTA-6967 NK cells (human) (UniProt P08637).
Experiment [2] shares this target. This is another data set of the same source.
A further experiment concerns the target CD16 (Homo sapiens) (UniProt P08637). The following applies: cited from earlier work.
Another experiment has as its target VWF (Homo sapiens) (UniProt P04275). Conditions: cited from earlier work.

For orientation: Kd means the constant that tells how readily two partners part at equilibrium.

Chain of Fc gamma receptor IIIA (FcγRIIIA/CD16) on PTA-6967 NK cells (human) (P08637 17-254): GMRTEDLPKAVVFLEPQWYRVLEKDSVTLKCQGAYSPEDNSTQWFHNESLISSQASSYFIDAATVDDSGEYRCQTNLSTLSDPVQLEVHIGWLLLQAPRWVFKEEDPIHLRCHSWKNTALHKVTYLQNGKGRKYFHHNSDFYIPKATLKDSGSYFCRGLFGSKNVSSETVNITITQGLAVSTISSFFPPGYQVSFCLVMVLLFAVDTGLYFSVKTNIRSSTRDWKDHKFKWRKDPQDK
Chain of CD16 (Homo sapiens) (P08637 17-254): as above
Chain of FVIII (P00451 20-2351): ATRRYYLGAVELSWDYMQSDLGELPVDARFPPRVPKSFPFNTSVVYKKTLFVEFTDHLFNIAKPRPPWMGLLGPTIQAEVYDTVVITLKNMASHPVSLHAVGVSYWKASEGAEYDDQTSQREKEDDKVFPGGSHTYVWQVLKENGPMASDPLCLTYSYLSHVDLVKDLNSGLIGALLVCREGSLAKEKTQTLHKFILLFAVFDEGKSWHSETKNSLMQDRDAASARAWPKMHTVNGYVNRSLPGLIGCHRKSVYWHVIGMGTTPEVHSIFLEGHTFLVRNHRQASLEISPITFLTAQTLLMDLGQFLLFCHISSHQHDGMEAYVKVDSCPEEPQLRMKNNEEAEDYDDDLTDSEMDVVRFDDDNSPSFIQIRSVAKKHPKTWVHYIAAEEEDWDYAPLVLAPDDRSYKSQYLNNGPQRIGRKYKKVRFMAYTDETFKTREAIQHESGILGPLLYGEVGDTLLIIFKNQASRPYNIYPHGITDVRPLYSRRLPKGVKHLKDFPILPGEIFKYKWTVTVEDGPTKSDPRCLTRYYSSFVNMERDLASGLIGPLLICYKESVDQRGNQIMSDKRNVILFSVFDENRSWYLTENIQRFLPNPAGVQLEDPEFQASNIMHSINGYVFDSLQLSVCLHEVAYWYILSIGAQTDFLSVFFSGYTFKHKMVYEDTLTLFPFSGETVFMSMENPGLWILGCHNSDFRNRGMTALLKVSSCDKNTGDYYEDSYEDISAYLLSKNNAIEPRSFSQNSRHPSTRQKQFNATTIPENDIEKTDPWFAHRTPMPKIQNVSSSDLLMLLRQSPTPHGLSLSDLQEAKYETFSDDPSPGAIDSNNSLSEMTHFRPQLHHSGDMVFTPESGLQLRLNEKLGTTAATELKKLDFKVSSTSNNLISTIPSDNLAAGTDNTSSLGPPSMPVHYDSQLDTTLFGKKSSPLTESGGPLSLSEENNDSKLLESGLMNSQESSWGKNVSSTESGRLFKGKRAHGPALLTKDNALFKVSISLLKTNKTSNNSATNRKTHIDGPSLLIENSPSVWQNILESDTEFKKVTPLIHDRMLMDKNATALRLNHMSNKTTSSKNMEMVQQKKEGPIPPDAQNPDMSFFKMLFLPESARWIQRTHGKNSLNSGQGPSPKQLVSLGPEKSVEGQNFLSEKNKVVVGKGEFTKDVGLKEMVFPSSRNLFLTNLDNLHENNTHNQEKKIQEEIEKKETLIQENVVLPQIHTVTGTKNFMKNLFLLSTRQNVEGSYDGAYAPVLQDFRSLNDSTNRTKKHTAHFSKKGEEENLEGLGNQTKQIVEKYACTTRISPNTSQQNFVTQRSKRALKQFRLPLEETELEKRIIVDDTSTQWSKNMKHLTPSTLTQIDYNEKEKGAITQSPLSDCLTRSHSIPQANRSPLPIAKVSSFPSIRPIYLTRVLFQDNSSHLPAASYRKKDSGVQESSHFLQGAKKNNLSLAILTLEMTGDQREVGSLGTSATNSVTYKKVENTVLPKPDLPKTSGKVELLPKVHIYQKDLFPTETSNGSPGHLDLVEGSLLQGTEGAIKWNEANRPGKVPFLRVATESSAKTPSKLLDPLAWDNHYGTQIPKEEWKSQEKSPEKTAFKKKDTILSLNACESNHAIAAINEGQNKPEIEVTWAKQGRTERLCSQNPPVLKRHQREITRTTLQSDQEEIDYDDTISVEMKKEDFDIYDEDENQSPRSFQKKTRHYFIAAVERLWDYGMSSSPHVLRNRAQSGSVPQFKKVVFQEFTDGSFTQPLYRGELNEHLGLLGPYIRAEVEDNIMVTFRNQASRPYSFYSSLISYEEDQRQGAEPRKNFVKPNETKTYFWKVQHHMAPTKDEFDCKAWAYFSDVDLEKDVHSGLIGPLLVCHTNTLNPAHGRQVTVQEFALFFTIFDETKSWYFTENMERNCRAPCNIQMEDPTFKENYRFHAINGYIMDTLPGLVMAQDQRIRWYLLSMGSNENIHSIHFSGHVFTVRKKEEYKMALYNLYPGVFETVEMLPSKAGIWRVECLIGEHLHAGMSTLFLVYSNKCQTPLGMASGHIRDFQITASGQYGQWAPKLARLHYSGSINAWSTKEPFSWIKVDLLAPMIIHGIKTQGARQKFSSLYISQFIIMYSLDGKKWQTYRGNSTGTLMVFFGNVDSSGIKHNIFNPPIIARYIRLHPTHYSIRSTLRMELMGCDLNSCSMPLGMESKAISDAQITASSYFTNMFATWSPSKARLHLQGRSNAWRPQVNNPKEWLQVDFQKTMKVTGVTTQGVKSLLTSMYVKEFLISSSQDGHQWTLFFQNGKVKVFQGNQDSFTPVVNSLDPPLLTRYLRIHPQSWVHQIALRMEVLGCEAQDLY

In turn, “recombinant Factor VIII Fc-fusion protein (rFVIIIFc) (Fc fusion)” gave an EC50 of IFNγ secretion (ELISA) by CD16^+ NK cells (PTA-6967), overnight, rFVIIIFc 250 nM to 7.6 pM (Figure 2B) in experiment [1] of 6.4 nM. This substance also yielded a surface CD107a (LAMP1), % LAMP1^+ PTA-6967 NK cells by flow cytometry after 6 hours with 250 nM rFVIIIFc, against untreated cells (Figure 2E) in experiment [2] of 8 fold.

On to IgG1 Fc Fc (from UniProt P01857), for which the Kd in the experiment with CD16 (Homo sapiens) is 1000 nM.

On to FVIII (from UniProt P00451), for which, in the experiment with VWF (Homo sapiens), the Kd is 0.2 nM.
